Test results: paper PMC9482650, “Quantitative fragmentomics allow affinity mapping of interactomes” (Nature Communications, 2022)

Columns and labels:
Experiment in all cases: holdup assay
Parameters in all cases: key: below the threshold = too weak to quantify, mostly under pKd 3.1 to 4
Conditions in all cases: plain residues with an end cap or a label only (N-terminal biotin on a linker: ttds)
PDZRN4_2, Q6ZMN7 = target: PDZRN4_2, Q6ZMN7
MPP5, Q8N3R9 = target: T1, MPP5, Q8N3R9
T1 sequence (Q8N3R9 251-346, limits assumed, looked up): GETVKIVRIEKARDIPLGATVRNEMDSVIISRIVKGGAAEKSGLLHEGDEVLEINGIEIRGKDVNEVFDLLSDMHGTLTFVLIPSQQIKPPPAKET

PDZD11, Q5EBL8 = target: T2, PDZD11, Q5EBL8
T2 sequence (Q5EBL8 42-139, limits assumed, looked up): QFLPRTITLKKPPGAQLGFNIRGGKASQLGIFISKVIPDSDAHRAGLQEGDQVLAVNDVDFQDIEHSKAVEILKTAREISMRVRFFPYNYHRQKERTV

MPP1, Q00013 = target: T3, MPP1, Q00013
T3 sequence (Q00013 66-162, limits assumed, looked up): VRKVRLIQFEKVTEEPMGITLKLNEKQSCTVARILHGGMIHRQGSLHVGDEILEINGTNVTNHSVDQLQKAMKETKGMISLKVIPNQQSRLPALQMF

SHROOM4, Q9ULL8 = target: T4, SHROOM4, Q9ULL8
T4 sequence (Q9ULL8 5-102, limits assumed, looked up): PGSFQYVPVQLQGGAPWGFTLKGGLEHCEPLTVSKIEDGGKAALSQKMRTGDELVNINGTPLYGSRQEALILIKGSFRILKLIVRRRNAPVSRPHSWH

CNKSR1, Q969H4 = target: T5, CNKSR1, Q969H4
T5 sequence (Q969H4 191-295, limits assumed, looked up): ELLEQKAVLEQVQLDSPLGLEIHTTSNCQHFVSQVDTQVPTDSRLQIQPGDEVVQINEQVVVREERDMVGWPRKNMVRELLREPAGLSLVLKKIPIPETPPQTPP

MLLT4, P55196 = target: T6, MLLT4, P55196
T6 sequence (P55196 1002-1103, limits assumed, looked up): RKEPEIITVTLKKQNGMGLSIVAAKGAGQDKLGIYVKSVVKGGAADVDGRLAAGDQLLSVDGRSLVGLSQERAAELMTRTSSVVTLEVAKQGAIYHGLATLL

PREX1_1, Q8TCU6 = target: PREX1_1, Q8TCU6
PARD3B_2, Q8TEW8 = target: PARD3B_2, Q8TEW8
MPDZ_2, O75970 = target: T7, MPDZ_2, O75970
T7 sequence (O75970 252-347, limits assumed, looked up): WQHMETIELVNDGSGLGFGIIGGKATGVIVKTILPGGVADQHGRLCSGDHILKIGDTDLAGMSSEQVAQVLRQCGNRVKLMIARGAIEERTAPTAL

MPDZ_7, O75970 = target: T8, MPDZ_7, O75970
T8 sequence (O75970 1146-1253, limits assumed, looked up): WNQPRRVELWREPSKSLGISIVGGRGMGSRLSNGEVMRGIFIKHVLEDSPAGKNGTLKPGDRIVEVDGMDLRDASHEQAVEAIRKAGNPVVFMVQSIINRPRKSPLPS

LMO7, Q8WWI1 = target: LMO7, Q8WWI1
SHROOM2, Q13796 = target: T9, SHROOM2, Q13796
T9 sequence (Q13796 21-118, limits assumed, looked up): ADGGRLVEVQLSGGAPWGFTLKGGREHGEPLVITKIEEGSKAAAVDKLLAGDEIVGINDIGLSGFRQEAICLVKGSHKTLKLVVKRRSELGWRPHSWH

PDZD7_2, Q9H5P4 = target: T10, PDZD7_2, Q9H5P4
T10 sequence (Q9H5P4 205-303, limits assumed, looked up): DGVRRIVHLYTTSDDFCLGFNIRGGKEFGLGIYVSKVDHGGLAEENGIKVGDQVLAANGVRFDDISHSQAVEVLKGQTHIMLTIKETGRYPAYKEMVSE

NHERF3_1, Q5T2W1 = target: T11, NHERF3_1, Q5T2W1
T11 sequence (Q5T2W1 4-100, limits assumed, looked up): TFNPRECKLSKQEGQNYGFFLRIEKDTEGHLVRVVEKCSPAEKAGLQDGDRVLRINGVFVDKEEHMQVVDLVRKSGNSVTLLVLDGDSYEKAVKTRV

GRIP2_2, Q9C0E4 = target: GRIP2_2, Q9C0E4
RGS12, O14924 = target: T12, RGS12, O14924
T12 sequence (O14924 17-108, limits assumed, looked up): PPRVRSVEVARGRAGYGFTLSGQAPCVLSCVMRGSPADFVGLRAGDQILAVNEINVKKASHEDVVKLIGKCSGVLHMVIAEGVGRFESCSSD

PTPN13_4, Q12923 = target: T13, PTPN13_4, Q12923
T13 sequence (Q12923 1783-1878, limits assumed, looked up): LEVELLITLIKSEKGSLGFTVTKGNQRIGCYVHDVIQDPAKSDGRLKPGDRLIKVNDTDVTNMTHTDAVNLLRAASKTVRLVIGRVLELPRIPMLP

MAGI3_4, Q5TCQ9 = target: MAGI3_4, Q5TCQ9
MAST3, O60307 = target: MAST3, O60307
SYNJ2BP, P57105 = target: T14, SYNJ2BP, P57105
T14 sequence (P57105 8-110, limits assumed, looked up): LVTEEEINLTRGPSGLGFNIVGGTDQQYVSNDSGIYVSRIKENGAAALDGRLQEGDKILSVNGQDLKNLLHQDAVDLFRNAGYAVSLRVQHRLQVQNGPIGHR

USH1C_1, Q9Y6N9 = target: T15, USH1C_1, Q9Y6N9
T15 sequence (Q9Y6N9 82-179, limits assumed, looked up): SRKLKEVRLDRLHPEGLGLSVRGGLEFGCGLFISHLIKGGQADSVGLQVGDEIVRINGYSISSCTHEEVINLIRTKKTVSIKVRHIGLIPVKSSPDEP

Sequence of PDZRN4_2, Q6ZMN7 (Q6ZMN7 389-498): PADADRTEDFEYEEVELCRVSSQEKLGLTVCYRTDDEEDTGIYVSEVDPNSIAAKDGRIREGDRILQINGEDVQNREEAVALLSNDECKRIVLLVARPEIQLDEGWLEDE
Sequence of MAGI3_4, Q5TCQ9 (Q5TCQ9 716-815): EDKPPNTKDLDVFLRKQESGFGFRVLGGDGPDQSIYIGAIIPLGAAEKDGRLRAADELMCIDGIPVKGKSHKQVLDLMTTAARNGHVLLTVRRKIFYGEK
Sequence of PARD3B_2, Q8TEW8 (Q8TEW8 376-471): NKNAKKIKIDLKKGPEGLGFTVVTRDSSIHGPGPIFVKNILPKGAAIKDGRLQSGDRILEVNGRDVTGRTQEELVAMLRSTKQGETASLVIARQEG
Sequence of LMO7, Q8WWI1 (Q8WWI1 1037-1138): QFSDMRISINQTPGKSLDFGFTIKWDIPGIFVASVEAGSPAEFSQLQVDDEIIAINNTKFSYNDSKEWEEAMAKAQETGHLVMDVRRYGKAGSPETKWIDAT
Sequence of GRIP2_2, Q9C0E4 (Q9C0E4 137-245): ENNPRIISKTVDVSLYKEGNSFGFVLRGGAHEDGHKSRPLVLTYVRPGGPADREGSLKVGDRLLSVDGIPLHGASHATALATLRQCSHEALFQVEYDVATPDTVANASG
Sequence of PREX1_1, Q8TCU6 (Q8TCU6 608-718): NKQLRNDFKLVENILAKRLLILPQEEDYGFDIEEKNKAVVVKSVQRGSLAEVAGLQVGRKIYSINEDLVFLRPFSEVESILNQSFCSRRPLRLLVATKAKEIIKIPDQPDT
Sequence of MAST3, O60307 (O60307 945-1048): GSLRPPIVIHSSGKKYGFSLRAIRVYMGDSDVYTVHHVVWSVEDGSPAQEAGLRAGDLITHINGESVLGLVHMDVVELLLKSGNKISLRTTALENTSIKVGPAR

## PSRDRKETSI [RALBP1, Q15311]
PDZRN4_2, Q6ZMN7
  pKd: below the threshold
MPP5, Q8N3R9
  pKd: below the threshold
PDZD11, Q5EBL8
  pKd: below the threshold
MPP1, Q00013
  pKd: 4.01
SHROOM4, Q9ULL8
  pKd: below the threshold
CNKSR1, Q969H4
  pKd: below the threshold
MLLT4, P55196
  pKd: below the threshold
PREX1_1, Q8TCU6
  pKd: below the threshold
PARD3B_2, Q8TEW8
  pKd: 3.74
MPDZ_2, O75970
  pKd: below the threshold
MPDZ_7, O75970
  pKd: below the threshold
LMO7, Q8WWI1
  pKd: below the threshold
SHROOM2, Q13796
  pKd: below the threshold
PDZD7_2, Q9H5P4
  pKd: below the threshold
NHERF3_1, Q5T2W1
  pKd: 3.68
GRIP2_2, Q9C0E4
  pKd: 4.25
RGS12, O14924
  pKd: below the threshold
PTPN13_4, Q12923
  pKd: below the threshold
MAGI3_4, Q5TCQ9
  pKd: below the threshold
MAST3, O60307
  pKd: below the threshold
SYNJ2BP, P57105
  pKd: 4.7
USH1C_1, Q9Y6N9
  pKd: below the threshold
